Measured values: patent publication WO2017205216A1 (dated 2017)

Biological target: T1, murine PD-L1 (murine, UniProt Q9EP73 19-238, limits assumed)
T1 construct: also called PD-Ll; mouse target protein
Assay: not described; stated in Example 1

T1 sequence (Q9EP73 19-238 limits assumed): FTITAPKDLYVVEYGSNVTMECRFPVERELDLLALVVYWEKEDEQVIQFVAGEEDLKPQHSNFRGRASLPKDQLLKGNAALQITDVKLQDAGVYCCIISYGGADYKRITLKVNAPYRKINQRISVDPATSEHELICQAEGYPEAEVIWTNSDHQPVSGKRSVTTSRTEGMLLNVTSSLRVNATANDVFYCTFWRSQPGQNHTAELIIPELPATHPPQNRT

B1: anti-murine PD-L1 clone 178G7 (antibody, V domains shown)
VH: QVQLQQSGADLAKPGSSVKISCKASGYNFNSYYINWIKQTTGQGLEYIGYINTVSGTTKYSEKFKGKATLTVDKSSSTAFMQLSSLTPDDSAVYYCARGTIVLDDYWGQGVKVTVSS
VL: DIVMTQTPSSQAVSAGEKVTMSCKSSQSLLYNEKKKNYLAWYQQKPGQSPKLLIYWASTRESGVPDRFLGSGSGTDFTLTINSVQAEDLAVYYCQQSYDFPRTFGGGTKLELKR
notes: also called anti-PD-L1 antibody; anti-PD-L1 therapy
B1: binds.
